{
  "source": "paper doi:10.1101/2023.10.09.561523",
  "about": "(bioRxiv, 2023)",
  "proteins": {"B1": {"name": "SH3-domain containing protein 2 (SH3P2), purified full-length protein (natural protein, Arabidopsis thaliana, UniProt Q8VWF1 1-368, looked up)", "chain": "MDAIRKQASRLREQVARQQQAVFKQFGGGGYGSGLADEAELNQHQKLEKLYISTRAAKHYQRDIVRGVEGYIVTGSKQVEIGTKLSEDSRKYGSENTCTNGNVLTRAALNYGRARAQMEKERGNMLKALGTQVAEPLRAMVLGAPLEDARHLAQRYDRMRQEAEAQATEVARRQAKARESQGNPDILMKLESAEAKLHDLKSNMTILGKEAASALASVEDQQQKLTLERLLSMVESERAYHQRVLQILDQLEGEMVSERQRIEAPSTPSSADSMPPPPSYEEANGVFASQMHDTSTDSMGYFLGEVLFPYHGVTDVELSLSTGEYVVVRKVTGSGWAEGECKGKAGWFPYGYIERRERVLASKVSEVF"}},
  "biological_target": "the molecule itself",
  "assay": "mass photometry",
  "data": [
    {"protein": "B1", "values": [
      {"measurement": "stoichiometry N", "value": 2}
    ]}
  ]
}
